Results taken from the supplement of paper PMC10065799, “High-throughput profiling of sequence recognition by tyrosine kinases and SH2 domains using bacterial peptide display” (eLife, 2023).

Experiments:
AncSZ = assay: phosphorylation enrichment, bacterial display (enrichment ratio); higher = better substrate or ligand; peptides without Tyr show the background
EPHB1 = EPHB1 (UniProt P54762); assay: as above
EPHB2 = EPHB2 (UniProt P29323); assay: as above
FGFR1 = FGFR1 (UniProt P11362); assay: as above
FGFR3 = FGFR3 (UniProt P22607); assay: as above
Fer (mouse) = assay: as above
Fes = Fes (UniProt P07332); assay: as above
Fyn = Fyn (UniProt P06241); assay: as above
Hck = Hck (UniProt P08631); assay: as above
Jak2 = Jak2 (UniProt O60674); assay: as above
MERTK = MERTK (UniProt Q12866); assay: as above
c-Abl (mouse) = assay: as above
c-Src = assay: as above
Grb2 SH2 = Grb2 SH2 (UniProt P62993); assay: SH2 binding enrichment of the phosphorylated peptide, bacterial display (enrichment ratio); higher = better substrate or ligand; peptides without Tyr show the background
SHP2-C SH2 = assay: as above
c-Src SH2 = assay: as above
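Throughout, for SH2 binding enrichment of the phosphorylated peptide, bacterial display: peptide library displayed on the E. coli surface as eCPX fusions, selected cells deep-sequenced, score is each peptide's frequency after selection divided by its frequency in the input.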
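Throughout, for phosphorylation enrichment, bacterial display: 11-residue human phosphosite peptides and single-mutation variants displayed on the E. coli surface, counted by deep sequencing, each peptide's frequency after selection divided by its frequency in the unselected input library; frequency after pTyr selection over input frequency; kinase dosed for 20-30% of maximal phosphorylation in three min.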

Chain of Fyn (P06241 whole entry, looked up): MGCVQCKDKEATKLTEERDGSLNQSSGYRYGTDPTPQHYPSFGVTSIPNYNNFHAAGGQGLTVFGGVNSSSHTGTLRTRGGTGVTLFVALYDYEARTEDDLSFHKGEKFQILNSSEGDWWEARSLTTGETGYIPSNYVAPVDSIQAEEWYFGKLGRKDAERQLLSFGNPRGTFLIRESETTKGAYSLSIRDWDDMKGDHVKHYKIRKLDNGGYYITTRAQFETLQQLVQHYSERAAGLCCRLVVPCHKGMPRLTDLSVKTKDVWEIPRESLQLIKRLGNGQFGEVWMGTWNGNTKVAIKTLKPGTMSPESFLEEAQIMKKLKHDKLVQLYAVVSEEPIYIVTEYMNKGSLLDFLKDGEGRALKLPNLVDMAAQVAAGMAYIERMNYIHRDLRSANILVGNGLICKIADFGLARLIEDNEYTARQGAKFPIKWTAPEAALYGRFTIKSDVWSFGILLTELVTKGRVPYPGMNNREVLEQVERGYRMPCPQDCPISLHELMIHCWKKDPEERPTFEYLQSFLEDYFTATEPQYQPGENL
Chain of Fes (P07332 whole entry, looked up): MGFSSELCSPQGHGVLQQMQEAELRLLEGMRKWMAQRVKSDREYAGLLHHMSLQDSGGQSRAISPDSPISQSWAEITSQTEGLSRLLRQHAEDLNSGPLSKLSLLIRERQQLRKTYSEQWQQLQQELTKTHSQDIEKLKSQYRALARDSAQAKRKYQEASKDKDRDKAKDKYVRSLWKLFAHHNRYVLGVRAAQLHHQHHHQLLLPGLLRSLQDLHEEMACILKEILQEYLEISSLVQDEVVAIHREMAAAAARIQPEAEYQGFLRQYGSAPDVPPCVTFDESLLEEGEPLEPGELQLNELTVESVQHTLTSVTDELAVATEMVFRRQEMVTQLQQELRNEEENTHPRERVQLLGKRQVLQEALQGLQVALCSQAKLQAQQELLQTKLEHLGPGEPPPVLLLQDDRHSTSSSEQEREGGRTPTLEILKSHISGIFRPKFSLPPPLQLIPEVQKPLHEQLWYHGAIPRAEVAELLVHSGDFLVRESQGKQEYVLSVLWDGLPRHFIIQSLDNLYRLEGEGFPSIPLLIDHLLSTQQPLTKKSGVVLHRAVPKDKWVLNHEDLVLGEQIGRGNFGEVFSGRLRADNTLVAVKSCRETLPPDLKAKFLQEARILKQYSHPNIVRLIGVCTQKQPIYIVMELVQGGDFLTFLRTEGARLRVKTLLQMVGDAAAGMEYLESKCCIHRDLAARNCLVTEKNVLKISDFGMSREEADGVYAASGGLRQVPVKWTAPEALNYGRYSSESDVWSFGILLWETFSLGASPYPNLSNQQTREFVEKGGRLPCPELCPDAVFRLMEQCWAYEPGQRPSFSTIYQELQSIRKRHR
Chain of FGFR3 (P22607 whole entry, looked up): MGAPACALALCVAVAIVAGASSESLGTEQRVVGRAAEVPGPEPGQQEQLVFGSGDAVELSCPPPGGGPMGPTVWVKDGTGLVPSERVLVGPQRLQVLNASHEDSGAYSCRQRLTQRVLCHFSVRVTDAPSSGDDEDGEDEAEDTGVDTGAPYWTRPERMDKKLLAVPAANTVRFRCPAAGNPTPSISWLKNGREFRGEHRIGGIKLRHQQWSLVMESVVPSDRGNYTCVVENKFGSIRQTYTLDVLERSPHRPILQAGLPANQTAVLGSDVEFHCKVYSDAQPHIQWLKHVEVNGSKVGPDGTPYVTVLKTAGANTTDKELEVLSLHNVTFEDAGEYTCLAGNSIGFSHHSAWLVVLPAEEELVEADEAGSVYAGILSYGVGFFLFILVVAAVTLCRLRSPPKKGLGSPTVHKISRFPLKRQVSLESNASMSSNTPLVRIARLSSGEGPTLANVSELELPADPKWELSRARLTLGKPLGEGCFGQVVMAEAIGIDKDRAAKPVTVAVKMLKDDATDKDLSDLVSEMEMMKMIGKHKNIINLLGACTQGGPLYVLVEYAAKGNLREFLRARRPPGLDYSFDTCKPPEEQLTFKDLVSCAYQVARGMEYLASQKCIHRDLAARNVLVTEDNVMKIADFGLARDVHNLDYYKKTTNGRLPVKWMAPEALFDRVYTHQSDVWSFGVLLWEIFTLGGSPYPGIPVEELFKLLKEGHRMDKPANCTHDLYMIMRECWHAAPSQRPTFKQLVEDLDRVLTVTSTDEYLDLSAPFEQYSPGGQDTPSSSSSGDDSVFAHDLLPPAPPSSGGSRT
Chain of FGFR1 (P11362 whole entry, looked up): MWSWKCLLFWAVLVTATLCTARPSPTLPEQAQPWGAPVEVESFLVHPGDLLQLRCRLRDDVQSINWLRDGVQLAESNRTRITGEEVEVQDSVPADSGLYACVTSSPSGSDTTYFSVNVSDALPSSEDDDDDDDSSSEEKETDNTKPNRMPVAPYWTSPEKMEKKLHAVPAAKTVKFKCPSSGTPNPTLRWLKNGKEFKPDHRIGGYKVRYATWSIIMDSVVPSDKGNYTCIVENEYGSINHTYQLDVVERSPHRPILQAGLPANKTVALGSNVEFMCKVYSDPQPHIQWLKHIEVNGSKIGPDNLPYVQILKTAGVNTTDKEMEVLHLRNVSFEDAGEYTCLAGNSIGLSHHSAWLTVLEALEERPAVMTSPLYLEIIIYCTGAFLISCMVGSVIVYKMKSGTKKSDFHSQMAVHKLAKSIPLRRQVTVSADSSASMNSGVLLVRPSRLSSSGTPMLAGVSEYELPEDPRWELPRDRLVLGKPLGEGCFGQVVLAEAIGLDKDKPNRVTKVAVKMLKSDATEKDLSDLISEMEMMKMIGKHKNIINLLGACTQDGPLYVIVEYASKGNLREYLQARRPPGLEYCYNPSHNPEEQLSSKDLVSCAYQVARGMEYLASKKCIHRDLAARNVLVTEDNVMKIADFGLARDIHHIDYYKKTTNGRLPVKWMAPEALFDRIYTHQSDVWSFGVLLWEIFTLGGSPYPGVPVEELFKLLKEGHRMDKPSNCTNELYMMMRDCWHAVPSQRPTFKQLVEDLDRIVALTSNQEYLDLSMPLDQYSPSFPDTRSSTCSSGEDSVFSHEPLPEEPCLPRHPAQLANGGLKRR
Chain of EPHB1 (P54762 whole entry, looked up): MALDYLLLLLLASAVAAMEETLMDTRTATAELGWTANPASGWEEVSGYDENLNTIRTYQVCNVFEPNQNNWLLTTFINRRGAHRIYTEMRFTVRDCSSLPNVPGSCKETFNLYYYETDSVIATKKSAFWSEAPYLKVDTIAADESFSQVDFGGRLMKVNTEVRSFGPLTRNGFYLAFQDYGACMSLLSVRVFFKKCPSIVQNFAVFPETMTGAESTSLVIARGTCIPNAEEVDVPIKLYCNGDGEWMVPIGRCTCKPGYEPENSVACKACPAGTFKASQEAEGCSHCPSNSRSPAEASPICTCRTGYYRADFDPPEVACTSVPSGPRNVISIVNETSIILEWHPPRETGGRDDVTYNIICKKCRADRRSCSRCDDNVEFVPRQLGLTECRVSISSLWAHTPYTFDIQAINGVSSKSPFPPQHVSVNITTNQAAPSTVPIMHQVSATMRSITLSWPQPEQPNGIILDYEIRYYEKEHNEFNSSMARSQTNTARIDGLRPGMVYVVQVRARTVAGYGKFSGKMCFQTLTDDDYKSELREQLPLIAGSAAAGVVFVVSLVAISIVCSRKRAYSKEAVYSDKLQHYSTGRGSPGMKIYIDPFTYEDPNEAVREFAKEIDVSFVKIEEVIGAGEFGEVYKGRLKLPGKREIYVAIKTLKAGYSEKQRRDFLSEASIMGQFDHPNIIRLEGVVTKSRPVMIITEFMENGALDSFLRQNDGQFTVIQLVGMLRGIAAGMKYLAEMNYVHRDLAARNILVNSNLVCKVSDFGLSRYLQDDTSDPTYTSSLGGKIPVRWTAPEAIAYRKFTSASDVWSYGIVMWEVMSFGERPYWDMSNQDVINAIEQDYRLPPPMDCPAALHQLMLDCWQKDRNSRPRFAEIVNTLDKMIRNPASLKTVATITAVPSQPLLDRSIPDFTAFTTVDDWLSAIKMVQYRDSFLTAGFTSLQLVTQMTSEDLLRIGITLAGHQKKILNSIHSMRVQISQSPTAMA
Chain of EPHB2 (P29323 whole entry, looked up): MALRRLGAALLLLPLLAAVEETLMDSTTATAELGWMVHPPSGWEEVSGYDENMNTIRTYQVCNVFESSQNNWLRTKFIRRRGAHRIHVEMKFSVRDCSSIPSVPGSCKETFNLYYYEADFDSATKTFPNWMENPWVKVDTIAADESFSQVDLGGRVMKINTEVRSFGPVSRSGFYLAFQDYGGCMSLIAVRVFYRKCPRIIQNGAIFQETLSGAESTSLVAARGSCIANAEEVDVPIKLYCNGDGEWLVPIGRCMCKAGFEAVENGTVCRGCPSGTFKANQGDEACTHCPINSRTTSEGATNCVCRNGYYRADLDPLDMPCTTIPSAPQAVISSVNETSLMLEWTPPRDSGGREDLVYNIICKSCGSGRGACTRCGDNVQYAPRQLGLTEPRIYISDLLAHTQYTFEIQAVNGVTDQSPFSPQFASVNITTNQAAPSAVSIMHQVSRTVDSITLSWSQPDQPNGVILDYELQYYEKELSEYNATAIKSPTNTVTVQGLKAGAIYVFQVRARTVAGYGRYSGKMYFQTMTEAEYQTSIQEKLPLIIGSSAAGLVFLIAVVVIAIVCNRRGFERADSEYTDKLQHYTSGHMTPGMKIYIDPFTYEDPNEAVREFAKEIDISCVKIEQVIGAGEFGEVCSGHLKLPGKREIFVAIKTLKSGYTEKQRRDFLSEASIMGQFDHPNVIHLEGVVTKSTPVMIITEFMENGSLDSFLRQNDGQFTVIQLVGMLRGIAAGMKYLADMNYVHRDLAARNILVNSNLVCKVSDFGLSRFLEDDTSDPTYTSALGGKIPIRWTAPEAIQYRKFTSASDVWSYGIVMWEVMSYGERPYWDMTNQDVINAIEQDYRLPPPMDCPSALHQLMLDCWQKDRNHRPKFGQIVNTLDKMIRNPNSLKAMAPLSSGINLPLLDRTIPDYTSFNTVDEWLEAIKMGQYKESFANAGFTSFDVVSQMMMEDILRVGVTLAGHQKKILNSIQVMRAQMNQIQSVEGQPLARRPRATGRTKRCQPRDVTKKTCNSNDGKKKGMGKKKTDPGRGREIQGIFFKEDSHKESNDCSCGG

Row | Sequence | SH2 binding enrichment (Grb2 SH2) | SH2 binding enrichment (SHP2-C SH2) | SH2 binding enrichment (c-Src SH2) | phosphorylation enrichment (AncSZ) | phosphorylation enrichment (EPHB1) | phosphorylation enrichment (EPHB2) | phosphorylation enrichment (FGFR1) | phosphorylation enrichment (FGFR3) | phosphorylation enrichment (Fer (mouse)) | phosphorylation enrichment (Fes) | phosphorylation enrichment (Fyn) | phosphorylation enrichment (Hck) | phosphorylation enrichment (Jak2) | phosphorylation enrichment (MERTK) | phosphorylation enrichment (c-Abl (mouse)) | phosphorylation enrichment (c-Src)
1 | SVVVPYEPPEF [TP53_Y220_V225F] | 0.88 | 0.658 | 0.987 | 1.01 | 0.558 | 0.524 | 0.49 | 0.598 | 0.449 | 1.05 | 0.427 | 0.461 | 0.993 | 0.374 | 0.743 | 0.509
2 | EFLKNYFTDKA [DSG2_Y775_R773K] | 0.764 | 0.882 | 0.365 | 0.847 | 0.527 | 0.63 | 0.555 | 0.493 | 0.361 | 0.827 | 0.581 | 0.556 | 0.808 | 0.531 | 0.573 | 0.632
3 | RAVLLYEYVGK [NATD1_Y45] | 1.19 | 1.11 | 1.02 | 3.07 | 28.2 | 35.4 | 3.61 | 3.99 | 19.4 | 4.82 | 6.98 | 10.4 | 0.857 | 11.4 | 1.24 | 5.21
4 | DKEKWYPLGNS [PIK3C2G_Y1438] | 0.83 | 1.11 | 0.44 | 0.762 | 0.43 | 0.441 | 0.384 | 0.569 | 0.422 | 0.868 | 0.366 | 0.372 | 0.681 | 0.292 | 0.488 | 0.345
5 | ETALHYIHDGI [GATD3A_Y250] | 0.786 | 1.03 | 0.501 | 0.818 | 0.524 | 0.525 | 0.412 | 0.637 | 0.525 | 0.796 | 0.433 | 0.432 | 0.775 | 0.431 | 0.659 | 0.48
6 | ATDLAYYLVCK [ASL_Y375_R379C] | 0.803 | 0.505 | 0.59 | 2.13 | 1.08 | 0.885 | 3.43 | 3.06 | 0.696 | 1.77 | 0.852 | 1.02 | 2.82 | 0.884 | 1.04 | 1.06
7 | KNCFKYYMSDD [ATRX_Y203] | 0.828 | 0.785 | 0.835 | 1.4 | 0.794 | 0.701 | 0.547 | 1.01 | 0.624 | 1.37 | 0.54 | 0.595 | 1.16 | 0.496 | 0.961 | 0.572
8 | SVNIRYLLFPS [SERAC1_Y548] | 1.72 | 1.67 | 1.38 | 1.08 | 0.714 | 0.634 | 0.574 | 0.929 | 0.469 | 1.36 | 0.47 | 0.558 | 1.25 | 0.46 | 0.817 | 0.463
9 | QSSEGYGLGDR [KIAA1210_Y564] | 0.695 | 0.861 | 0.419 | 1.03 | 0.731 | 0.754 | 0.538 | 0.677 | 0.871 | 1.06 | 0.842 | 0.989 | 1.14 | 0.847 | 1.27 | 1
10 | DVLVEYQEEGR [GNS_Y416_G418E] | 0.894 | 0.696 | 0.505 | 1.32 | 0.634 | 0.617 | 0.59 | 0.884 | 0.578 | 1.21 | 0.593 | 0.661 | 1.05 | 0.51 | 0.642 | 0.496
11 | FSPPFYHRNCM [HGD_Y334_R330S_YF] | 0.981 | 0.818 | 0.633 | 0.931 | 0.483 | 0.545 | 0.513 | 0.632 | 0.465 | 0.89 | 0.377 | 0.457 | 0.971 | 0.535 | 0.767 | 0.623
12 | SKDSAYVTWEP | 0.975 | 0.726 | 0.654 | 0.988 | 0.518 | 0.576 | 1.48 | 1.06 | 1.65 | 0.971 | 1.5 | 1.32 | 0.914 | 1.14 | 0.702 | 1.59
13 | CEHRGCLFLAI [TEK_Y897_Y897C_YF] | 0.934 | 0.974 | 0.751 | 1.02 | 0.554 | 0.468 | 0.455 | 0.624 | 0.421 | 1.13 | 0.334 | 0.38 | 0.797 | 0.298 | 0.601 | 0.282
14 | ALRASYTPSPA [ESS2_Y418] | 0.893 | 0.624 | 0.536 | 0.448 | 0.352 | 0.34 | 0.366 | 0.389 | 0.367 | 0.471 | 0.332 | 0.333 | 0.294 | 0.326 | 0.329 | 0.369
15 | TEALYYTDDTA [ADPRS_Y75] | 0.912 | 0.847 | 0.856 | 1.46 | 1.31 | 0.78 | 3.91 | 4.22 | 1.97 | 2.09 | 2.63 | 1.82 | 0.833 | 4.21 | 0.633 | 1.9
16 | KKHIPHREHKS [CSNK1G2_Y206_Y206H] | 2.15 | 1.87 | 1.8 | 2.89 | 2.61 | 1.71 | 1.97 | 4.9 | 2.81 | 4.05 | 1.01 | 1.72 | 5.87 | 1.42 | 4.03 | 1.53
17 | LAEMNYVHRDL [EPHB1_Y740] | 0.882 | 0.578 | 0.403 | 1.32 | 0.441 | 0.632 | 0.412 | 0.503 | 0.32 | 0.709 | 0.529 | 0.362 | 1.4 | 0.659 | 1.15 | 0.432

Continued, in another order:

Row | SH2 binding enrichment (Grb2 SH2) | SH2 binding enrichment (SHP2-C SH2) | SH2 binding enrichment (c-Src SH2) | Sequence | phosphorylation enrichment (AncSZ) | phosphorylation enrichment (EPHB1) | phosphorylation enrichment (EPHB2) | phosphorylation enrichment (FGFR1) | phosphorylation enrichment (FGFR3) | phosphorylation enrichment (Fer (mouse)) | phosphorylation enrichment (Fes) | phosphorylation enrichment (Fyn) | phosphorylation enrichment (Hck) | phosphorylation enrichment (Jak2) | phosphorylation enrichment (MERTK) | phosphorylation enrichment (c-Abl (mouse)) | phosphorylation enrichment (c-Src)
18 | 0.777 | 1.24 | 0.556 | RYFTTYDTNGR [CLCA1_Y665] | 0.657 | 0.672 | 0.698 | 0.709 | 0.598 | 0.471 | 0.746 | 0.693 | 0.943 | 0.742 | 0.557 | 0.296 | 0.774
19 | 1.04 | 1.31 | 0.985 | IRTIDYRYTVW [IDS_Y497] | 1.15 | 0.666 | 0.566 | 0.554 | 0.732 | 0.57 | 1.16 | 0.493 | 0.535 | 0.929 | 0.422 | 0.695 | 0.398
20 | 0.772 | 0.608 | 0.43 | EKRDAYVSRLN [GSR_Y150] | 0.547 | 0.455 | 0.434 | 0.418 | 0.441 | 0.328 | 0.575 | 0.351 | 0.429 | 0.48 | 0.397 | 0.423 | 0.377
21 | 0.984 | 0.698 | 0.458 | FLRKEYGGVNV [CBR3_Y81_L84V] | 0.644 | 0.391 | 0.4 | 0.416 | 0.495 | 0.475 | 0.916 | 0.452 | 0.425 | 0.598 | 0.471 | 0.612 | 0.578
22 | 0.782 | 0.852 | 1.25 | TVQVAYYTMMM [SPATA17_Y83] | 1.91 | 3.4 | 1.76 | 10.8 | 9.18 | 3.74 | 1.85 | 2 | 2.19 | 4.2 | 9.05 | 1.36 | 4.49
23 | 0.705 | 0.858 | 0.516 | FFCRWYRNRKS [EREG_Y144_YF] | 0.442 | 0.421 | 0.514 | 0.463 | 0.409 | 0.312 | 0.453 | 0.563 | 0.326 | 0.433 | 0.433 | 0.421 | 0.51
24 | 0.823 | 0.773 | 0.6 | RPCVVYGGADI [DDX3X_Y301] | 1 | 0.901 | 0.543 | 0.715 | 0.735 | 0.653 | 1.02 | 1.07 | 1.12 | 0.668 | 0.642 | 0.703 | 1.44
25 | 1.07 | 0.936 | 0.745 | VTRLWYPVCFG [ITK_Y336_R335W] | 1.17 | 0.66 | 0.699 | 1.11 | 1.36 | 0.509 | 1.35 | 0.502 | 0.488 | 1.02 | 0.412 | 0.89 | 0.403
26 | 0.733 | 0.564 | 2.41 | YEEDSYSHIMA [FDPS_Y388] | 1.85 | 0.67 | 0.714 | 1.35 | 1.18 | 1.48 | 1.26 | 0.64 | 0.976 | 1.06 | 0.561 | 0.663 | 0.813
27 | 0.919 | 0.657 | 0.399 | MSNVPYVMNRG [ACAT1_Y161] | 0.734 | 0.368 | 0.421 | 0.464 | 0.594 | 0.377 | 0.619 | 0.426 | 0.399 | 0.572 | 0.474 | 0.527 | 0.478
28 | 0.825 | 0.567 | 0.618 | EKAEVYGSENE [RIOK2_Y348] | 1.11 | 0.464 | 0.52 | 0.455 | 0.625 | 0.457 | 1 | 0.566 | 0.464 | 0.911 | 0.445 | 0.609 | 0.483
29 | 0.84 | 0.744 | 0.523 | KIRDWYQRQRP [KRT14_Y151] | 0.621 | 0.405 | 0.463 | 0.415 | 0.419 | 0.45 | 0.635 | 0.4 | 0.38 | 0.553 | 0.446 | 0.637 | 0.502
30 | 1.21 | 0.936 | 0.806 | YGIAQYCCRMG [LRRK2_Y2023] | 0.983 | 1 | 11.2 | 0.605 | 0.583 | 0.902 | 0.762 | 0.8 | 1.02 | 0.482 | 4.29 | 3.48 | 0.665
31 | 1.08 | 0.878 | 0.498 | ITVPAYFNDSQ [HSPA9_Y196] | 0.895 | 0.473 | 0.491 | 0.581 | 0.672 | 0.54 | 1.06 | 0.553 | 0.528 | 1.02 | 0.456 | 0.785 | 0.536
32 | 0.884 | 0.75 | 0.889 | ECKETYHEGEC [PRKN_Y372_A371T] | 1.47 | 0.608 | 0.728 | 0.721 | 0.808 | 0.696 | 1.62 | 0.649 | 0.694 | 1.62 | 0.629 | 1.03 | 0.645
33 | 1 | 0.861 | 0.646 | PGPQSYPIVTG [PAX5_Y299] | 0.611 | 0.484 | 0.538 | 0.504 | 0.685 | 0.744 | 0.736 | 0.68 | 0.565 | 0.533 | 0.586 | 0.5 | 0.4
34 | 1.07 | 0.836 | 0.85 | CTTIHYNFMHN [TP53_Y234_C238H_YF] | 0.829 | 0.583 | 0.54 | 0.457 | 0.676 | 0.463 | 1 | 0.566 | 0.517 | 0.799 | 0.454 | 0.765 | 0.432
